Publication doi:10.1101/2020.08.03.234229 (bioRxiv, 2020)

Target: T1, TSEN15 tryptic fragment (residues 23 to 170) (human, UniProt Q8WW01 23-170)
T1 sequence (looked up): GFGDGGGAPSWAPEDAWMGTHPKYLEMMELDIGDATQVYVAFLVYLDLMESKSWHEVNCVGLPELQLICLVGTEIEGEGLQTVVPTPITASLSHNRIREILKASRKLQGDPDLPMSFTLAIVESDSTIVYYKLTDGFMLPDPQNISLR
Experiment: SEC

- binding result: binds
B1: TSEN34 tryptic fragment (residues 208 to 310) (domain or fragment, human, UniProt Q9BSV6 208-310, looked up)
chain: DWPHAGRPAHELRYSIYRDLWERGFFLSAAGKFGGDFLVYPGDPLRFHAHYIAQCWAPEDTIPLQDLVAAGRLGTSVRKTLLLCSPQPDGKVVYTSLQWASLQ
